Legend:
[1] = target: SARS-CoV-2突变株B.1.617.2株假病毒 (刺突蛋白) (SARS-CoV-2); assay: cell-based or functional assay
[2] = target: SARS-CoV-2突变株B.1.1.529株假病毒 (刺突蛋白) (SARS-CoV-2); assay: cell-based or functional assay

B1: 单克隆抗体8H9 (antibody, V domains shown)
VH: QIQLVQSGPELKKPGETVKISCKASGYTFTTYGMSWVKQTPGKGLKWMGWINTYSGVPTYADDFKGRFAFSLETSASTASLQINNLKNEDTATYFCARYDPTAPDYAMDYWGQGTSVTVSS
VL: NIVMTQSPKSMSMSVGERVTLSCKASENVGTYVSWYQQKPEQSPKLLIYGASNRYTGVPDRFTGSGSATDFTLTISSVQAEDLADYHCGQSYIYPLTFGAGTNLELK
假病毒中和活性IC50 [1]: 56.6 ng/mL
假病毒中和活性IC50 [2]: 92.9 ng/mL

B2: 单克隆抗体9D4 (antibody, V domains shown)
VH: QVHLQQSGPELVKPGASVKISCKSSGYALTDYYINWVKQRPGQGLEWIGWIFPGNDYTYFNEKFKDKATLTLDKSSRTAYMLLSSLTTEDSAVYFCARYGDGNYVYFDYWGQGTSLTVSS
VL: ETVLIQSPALMAASPGEKVTITCSVSSSISSSNLHWYQQKSGNSPKPWIYGTSNLASGVPVRFSGSGSGTSYSLTISSMEAEDAATYYCQQWSSYPLTFGAGTKLELK
假病毒中和活性IC50 [1]: 155 ng/mL
假病毒中和活性IC50 [2]: 188 ng/mL

— patent publication CN114790240A (UNIV ZHENGZHOU; UNIV HENAN AGRICULTURAL, dated 2022)
